Common to all, as to assay type: biochemical
The target in one test is T1, β2-microglobulin (β2m) (Homo sapiens, UniProt P61769).
T1 construct: purchased MP Biomedical
As to the kind of experiment: β2-microglobulin fibrillation ThT assay. The note with it: 1:1 ratio. Here is the method:
Addition of 5.8 μM αB crystallin peptides, ST, DR, LT, HG, and ER decreased the ThT fluorescence of β2m by 40-64%. When the concentration of the αB crystallin peptides was increased to 29 μM and 145 μM, no further decrease in ThT fluorescence was observed. The negative control peptide AT1 had no effect on β2m fibrillation even at a concentration as high as 290 μM. All five αB crystallin peptides inhibited β2m fibrillation at sub-stoichometric and stoichometric concentrations (5.8 μM and 29 μM).
The Thioflavin T (ThT) fluorescence of β2m in the presence of varying concentrations of αB crystallin peptides and controls was measured. […] When the concentration of the peptides was increased to 29 μM (1:1::peptide:β2m), the αB crystallin peptides decreased the ThT fluorescence by 35-65%. When the concentration of the peptides was increased further to 145 μM ([…]), the αB crystallin peptides decreased the ThT fluorescence by 13-27%. […] The formation and inhibition of β2-microglobulin fibrils was verified microscopically.
β2-microglobulin fibrillation ThT assays were performed as described previously. Raman et al., Biochem J 392:573-81, 2005; Ivanova et al., Proc Natl Acad Sci USA 101:10584-9, 2004. Peptides were dissolved to 2 mM in 0.25% DMSO and diluted accordingly, while β2-microglobulin was dissolved in 25 mM sodium acetate, 25 mM sodium phosphate, pH 2.4. For the 5:1::peptide:β2-microglobulin assay, 10 μL of 430 μM peptide was mixed with 10 μL of 86 μM β2-microglobulin, 7 μl of 25 mM sodium acetate, 25 mM sodium phosphate, pH 2.4 and 3 μL of 1 mM ThT. For the 1:1::peptide:β2-microglobulin assay, 10 μL of 86 μM peptide was mixed with 10 μL of 86 μM (2-microglobulin, 7 μl of 25 mM sodium acetate, 25 mM sodium phosphate, pH 2.4 and 3 μL of 1 mM ThT. For the 1:5::peptide:β2-microglobulin assay, 10 μL of 17.2 μM peptide was mixed with 10 μL of 86 μM β2-microglobulin, 7 μl of 25 mM sodium acetate, 25 mM sodium phosphate, pH 2.4 and 3 μL of 1 mM ThT. ThT fluorescence was measured using a Perkin Elmer Victor^3 V plate reader. Assays were performed in 384-well fluorescence plates in duplicates or triplicates. Samples were incubated at 37° C. ThT fluorescence was measured continuously for 180 minutes. The effect of the peptides and APS was calculated as percentage fibril formation relative to β2-microglobulin alone (100%) at the end of 180 minutes.

In the next test the test system is βH crystallin. As to the kind of experiment: Chaperone assay, thermal aggregation of βH crystallin at 50° C. Conditions: 50:1 molar ratio of peptide:βH crystallin, sixty minutes, 340 nm. The method, then:
(§1) The chaperone activity of the peptides was measured as their ability to protect against the thermal aggregation of three chaperone target proteins βH crystallin, ADH and CS in chaperone assays performed at 50° C. (FIG. 19). A non-interactive αB crystallin sequence 111HGKHEERQDE120 was used as the negative control in the chaperone assays (FIG. 19). Based on near and far UVCD, the three target proteins unfolded in the order: CS>>>ADH>>βH crystallin when they were heated at 50° C. for sixty minutes (FIGS. 15 and 16). The thermal aggregation of βH crystallin, ADH and CS was measured as light scattering at λ=340 nm in the presence and absence of each peptide. The chaperone activity of each peptide was calculated as percent protection in which the aggregation of each target protein in the absence of any peptides was set at 0% protection (FIG. 19). The interactive peptides […] and 131LTITSSLSDGV141 were effective inhibitors of aggregation of all three chaperone target proteins.
(§2) A (top left): thermal aggregation of chaperone target proteins βH crystallin, ADH and CS in the absence of peptides was measured as light scattering at λ=340 nm. Each target protein was heated at 50° C. for sixty minutes in the absence or presence of one of the peptides. […] The chaperone activity of each peptide was calculated as percent protection in which the aggregation of each target protein in the absence of any peptides was set at 0% protection. The ability of the 73DRFSVNLDVKHFS85, 131LTITSSLSDGV141 and 111HGKHEERQDE120 to protect against the thermal aggregation of βH crystallin (B: top right), ADH (C: bottom left) and CS (D: bottom right) were tested in vitro (vertical bars). […] A 10:1 molar ratio of peptide:target protein was sufficient in conferring significant protection against the aggregation of CS by 73DRFSVNLDVKHFS85 and 131LTITSSLSDGV141.

Another test has as its target amyloid beta (1-42) (Homo sapiens, UniProt P05067). Description: Cu+++-induced aggregation of amyloid beta (1-42), light scattering 360 nm. The note with it: 100 mM Cu+++. Here is the method: In vitro assays were also performed to measure the ability of the human αB crystallin derived peptides identified in Example 1 to inhibit aggregation of Cu^+++-induced amyloid beta (1-42) aggregation. Aggregation assays were performed using routine procedures, in the presence or absence of a synthesized peptide identified in Example 1, in the presence of 100 mM Cu^+++. Aggregation was measured spectrophotometrically as light scattering at a wavelength of 360 nm. Aggregated amyloid-beta was assigned a value of 100% aggregation and used to normalize aggregation in the presence of synthesize peptides.
Aggregation was measured spectrophotometrically as light scattering at a wavelength of 360 nm. Aggregated amyloid-beta was assigned a value of 100% aggregation and used to normalize aggregation in the presence of synthesize peptides. Aggregation was plotted as a bar graph with the standard error for duplicate experiments. The 1 st vertical bar is the scattering measured for aggregated amyloid-beta (100% aggregation) in the presence of 100 mM Cu^+++. The 2nd-4th vertical bars is the scattering from amyloid-beta in the presence of wild type recombinant human αB crystallin. The 5th-13th vertical bars are the scattering of amyloid-beta in the presence of the synthetic peptides, DRFSVNLDVKHFS or LTITSSLSDGV or HGKHEERQDE at selected concentrations. A prefix of 10× represents a 10:1 molar concentration of amyloid-beta to either wild type αB crystallin or its peptides. A prefix of 1× represents a 1:1 molar concentration of amyloid-beta to either wt αB crystallin or its peptides. A prefix of 0.1× represents a 1:10 molar concentration of amyloid-beta to either wt αB crystallin or its peptides.

The next test deals with ADH (Equus caballus, UniProt P00327). As to the kind of experiment: Chaperone assay, thermal aggregation of ADH at 50° C. The note with it: 50:1 molar ratio of peptide:ADH, sixty minutes, 340 nm. Here is the method:
as §1, §2

T1 sequence (P61769 21-119): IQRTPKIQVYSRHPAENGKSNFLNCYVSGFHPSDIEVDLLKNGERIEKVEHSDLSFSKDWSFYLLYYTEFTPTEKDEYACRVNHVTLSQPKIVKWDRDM
Sequence of ADH (P00327 whole entry): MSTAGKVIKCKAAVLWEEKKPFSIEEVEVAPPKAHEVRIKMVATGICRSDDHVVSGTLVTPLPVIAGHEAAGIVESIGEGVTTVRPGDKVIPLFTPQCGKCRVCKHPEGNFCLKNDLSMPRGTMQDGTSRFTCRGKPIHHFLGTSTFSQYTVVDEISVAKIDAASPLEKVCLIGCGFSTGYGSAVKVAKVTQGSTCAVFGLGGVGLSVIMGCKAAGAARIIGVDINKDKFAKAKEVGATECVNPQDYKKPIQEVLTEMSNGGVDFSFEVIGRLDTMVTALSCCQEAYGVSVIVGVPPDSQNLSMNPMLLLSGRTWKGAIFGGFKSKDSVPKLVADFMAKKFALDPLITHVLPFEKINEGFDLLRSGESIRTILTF

EERQ: the “inhibition of β2-microglobulin fibril formation, HG derived peptides” value with β2-microglobulin (β2m) is listed as roughly 100%.
Take LTITSSLSDGV: the “percent protection against thermal aggregation of βH crystallin” value in the test on βH crystallin is reported as “approximately 30%”. Further, the “prevention of Cu+++-induced aggregation of amyloid-beta” value with amyloid beta (1-42) (1:1 and 1:10 molar ratio of amyloid-beta to peptide) is reported as “equally effective”; in the test with amyloid beta (1-42) (10:1 molar ratio of amyloid-beta to peptide), “less effective”. For the same substance, the “percent protection against thermal aggregation of ADH” value with ADH is “approximately 30%”.
Regarding RQDE, the “inhibition of β2-microglobulin fibril formation, HG derived peptides” value with β2-microglobulin (β2m) is roughly 100%.
